Measured values: PMC4113749 (Toxins, 2014)

B3: TcdA^1–1874-EGFP (domain or fragment)
chain: MSLISKEELIKLAYSIRPRENEYKTILTNLDEYNKLTTNNNENKYLQLKKLNESIDVFMNKYKTSSRNRALSNLKKDILKEVILIKNSNTSPVEKNLHFVWIGGEVSDIALEYIKQWADINAEYNIKLWYDSEAFLVNTLKKAIVESSTTEALQLLEEEIQNPQFDNMKFYKKRMEFIYDRQKRFINYYKSQINKPTVPTIDDIIKSHLVSEYNRDETVLESYRTNSLRKINSNHGIDIRANSLFTEQELLNIYSQELLNRGNLAAASDIVRLLALKNFGGVYLDVDMLPGIHSDLFKTISRPSSIGLDRWEMIKLEAIMKYKKYINNYTSENFDKLDQQLKDNFKLIIESKSEKSEIFSKLENLNVSDLEIKIAFALGSVINQALISKQGSYLTNLVIEQVKNRYQFLNQHLNPAIESDNNFTDTTKIFHDSLFNSATAENSMFLTKIAPYLQVGFMPEARSTISLSGPGAYASAYYDFINLQENTIEKTLKASDLIEFKFPENNLSQLTEQEINSLWSFDQASAKYQFEKYVRDYTGGSLSEDNGVDFNKNTALDKNYLLNNKIPSNNVEEAGSKNYVHYIIQLQGDDISYEATCNLFSKNPKNSIIIQRNMNESAKSYFLSDDGESILELNKYRIPERLKNKEKVKVTFIGHGKDEFNTSEFARLSVDSLSNEISSFLDTIKLDISPKNVEVNLLGCNMFSYDFNVEETYPGKLLLSIMDKITSTLPDVNKNSITIGANQYEVRINSEGRKELLAHSGKWINKEEAIMSDLSSKEYIFFDSIDNKLKAKSKNIPGLASISEDIKTLLLDASVSPDTKFILNNLKLNIESSIGDYIYYEKLEPVKNIIHNSIDDLIDEFNLLENVSDELYELKKLNNLDEKYLISFEDISKNNSTYSVRFINKSNGESVYVETEKEIFSKYSEHITKEISTIKNSIITDVNGNLLDNIQLDHTSQVNTLNAAFFIQSLIDYSSNKDVLNDLSTSVKVQLYAQLFSTGLNTIYDSIQLVNLISNAVNDTINVLPTITEGIPIVSTILDGINLGAAIKELLDEHDPLLKKELEAKVGVLAINMSLSIAATVASIVGIGAEVTIFLLPIAGISAGIPSLVNNELILHDKATSVVNYFNHLSESKKYGPLKTEDDKILVPIDDLVISEIDFNNNSIKLGTCNILAMEGGSGHTVTGNIDHFFSSPSISSHIPSLSIYSAIGIETENLDFSKKIMMLPNAPSRVFWWETGAVPGLRSLENDGTRLLDSIRDLYPGKFYWRFYAFFDYAITTLKPVYEDTNIKIKLDKDTRNFIMPTITTNEIRNKLSYSFDGAGGTYSLLLSSYPISTNINLSKDDLWIFNIDNEVREISIENGTIKKGKLIKDVLSKIDINKNKLIIGNQTIDFSGDIDNKDRYIFLTCELDDKISLIIEINLVAKSYSLLLSGDKNYLISNLSNTIEKINTLGLDSKNIAYNYTDESNNKYFGAISKTSQKSIIHYKKDSKNILEFYNDSTLEFNSKDFIAEDINVFMKDDINTITGKYYVDNNTDKSIDFSISLVSKNQVKVNGLYLNESVYSSYLDFVKNSDGHHNTSNFMNLFLDNISFWKLFGFENINFVIDKYFTLVGKTNLGYVEFICDNNKNIDIYFGEWKTSSSKSTIFSGNGRNVVVEPIYNPDTGEDISTSLDFSYEPLYGIDRYINKVLIAPDLYTSLININTNYYSNEYYPEIIVLNPNTFHKKVNINLDSSSFEYKWSTEGSDFILVRYLEESNKKILQKIRIKGILSNTQSFNKMSIDFKDIKKLSLGYIMSNFKSFNSENELDRDHLGFKIIDNKTYYYDEDSKLVKGLININNSLFYFDPIEFNLVTGWQTINGKKYYFDINTGAALTS

Experiments:
Settings in all cases: both partners purified
TcdA^1–1874-EGFP = target: B3; assay: MST
[1] = target: GST-fused TcdA CROPs (combined repetitive oligopeptides of Clostridium difficile toxin A) (Clostridium difficile (strain VPI 10463), UniProt P16154 1875-2710); assay: pull-down
recombinant Rac1 = recombinant Rac1 (UniProt P63000 1-192); assay: MST

B1: isolated TcdA CROPs (TcdA^1875–2710) (domain or fragment)
chain: YKIINGKHFYFNNDGVMQLGVFKGPDGFEYFAPANTQNNNIEGQAIVYQSKFLTLNGKKYYFDNNSKAVTGWRIINNEKYYFNPNNAIAAVGLQVIDNNKYYFNPDTAIISKGWQTVNGSRYYFDTDTAIAFNGYKTIDGKHFYFDSDCVVKIGVFSTSNGFEYFAPANTYNNNIEGQAIVYQSKFLTLNGKKYYFDNNSKAVTGLQTIDSKKYYFNTNTAEAATGWQTIDGKKYYFNTNTAEAATGWQTIDGKKYYFNTNTAIASTGYTIINGKHFYFNTDGIMQIGVFKGPNGFEYFAPANTDANNIEGQAILYQNEFLTLNGKKYYFGSDSKAVTGWRIINNKKYYFNPNNAIAAIHLCTINNDKYYFSYDGILQNGYITIERNNFYFDANNESKMVTGVFKGPNGFEYFAPANTHNNNIEGQAIVYQNKFLTLNGKKYYFDNDSKAVTGWQTIDGKKYYFNLNTAEAATGWQTIDGKKYYFNLNTAEAATGWQTIDGKKYYFNTNTFIASTGYTSINGKHFYFNTDGIMQIGVFKGPNGFEYFAPANTDANNIEGQAILYQNKFLTLNGKKYYFGSDSKAVTGLRTIDGKKYYFNTNTAVAVTGWQTINGKKYYFNTNTSIASTGYTIISGKHFYFNTDGIMQIGVFKGPDGFEYFAPANTDANNIEGQAIRYQNRFLYLHDNIYYFGNNSKAATGWVTIDGNRYYFEPNTAMGANGYKTIDNKNFYFRNGLPQIGVFKGSNGFEYFAPANTDANNIEGQAIRYQNRFLHLLGKIYYFGNNSKAVTGWQTINGKVYYFMPDTAMAAAGGLFEIDGVIYFFGVDGVKAPGIYG
- Kd (TcdA^1–1874-EGFP): 1.44 ± 0.07 µM

B2: TcdA^1102–1847 (intermediate domain of toxin A) (domain or fragment)
chain: SAGIPSLVNNELILHDKATSVVNYFNHLSESKKYGPLKTEDDKILVPIDDLVISEIDFNNNSIKLGTCNILAMEGGSGHTVTGNIDHFFSSPSISSHIPSLSIYSAIGIETENLDFSKKIMMLPNAPSRVFWWETGAVPGLRSLENDGTRLLDSIRDLYPGKFYWRFYAFFDYAITTLKPVYEDTNIKIKLDKDTRNFIMPTITTNEIRNKLSYSFDGAGGTYSLLLSSYPISTNINLSKDDLWIFNIDNEVREISIENGTIKKGKLIKDVLSKIDINKNKLIIGNQTIDFSGDIDNKDRYIFLTCELDDKISLIIEINLVAKSYSLLLSGDKNYLISNLSNTIEKINTLGLDSKNIAYNYTDESNNKYFGAISKTSQKSIIHYKKDSKNILEFYNDSTLEFNSKDFIAEDINVFMKDDINTITGKYYVDNNTDKSIDFSISLVSKNQVKVNGLYLNESVYSSYLDFVKNSDGHHNTSNFMNLFLDNISFWKLFGFENINFVIDKYFTLVGKTNLGYVEFICDNNKNIDIYFGEWKTSSSKSTIFSGNGRNVVVEPIYNPDTGEDISTSLDFSYEPLYGIDRYINKVLIAPDLYTSLININTNYYSNEYYPEIIVLNPNTFHKKVNINLDSSSFEYKWSTEGSDFILVRYLEESNKKILQKIRIKGILSNTQSFNKMSIDFKDIKKLSLGYIMSNFKSFNSENELDRDHLGFKIIDNKTYYYDEDSKLVKGLININNSLFYFDPIE
- binding result [1]: binds

Binder: B3
- Kd (recombinant Rac1): 3.32 ± 0.36 µM
